Laboratory results from PMC5012860.

Target: T1, UHRF1 wild-type (human) (UniProt Q96T88)
T1 sequence: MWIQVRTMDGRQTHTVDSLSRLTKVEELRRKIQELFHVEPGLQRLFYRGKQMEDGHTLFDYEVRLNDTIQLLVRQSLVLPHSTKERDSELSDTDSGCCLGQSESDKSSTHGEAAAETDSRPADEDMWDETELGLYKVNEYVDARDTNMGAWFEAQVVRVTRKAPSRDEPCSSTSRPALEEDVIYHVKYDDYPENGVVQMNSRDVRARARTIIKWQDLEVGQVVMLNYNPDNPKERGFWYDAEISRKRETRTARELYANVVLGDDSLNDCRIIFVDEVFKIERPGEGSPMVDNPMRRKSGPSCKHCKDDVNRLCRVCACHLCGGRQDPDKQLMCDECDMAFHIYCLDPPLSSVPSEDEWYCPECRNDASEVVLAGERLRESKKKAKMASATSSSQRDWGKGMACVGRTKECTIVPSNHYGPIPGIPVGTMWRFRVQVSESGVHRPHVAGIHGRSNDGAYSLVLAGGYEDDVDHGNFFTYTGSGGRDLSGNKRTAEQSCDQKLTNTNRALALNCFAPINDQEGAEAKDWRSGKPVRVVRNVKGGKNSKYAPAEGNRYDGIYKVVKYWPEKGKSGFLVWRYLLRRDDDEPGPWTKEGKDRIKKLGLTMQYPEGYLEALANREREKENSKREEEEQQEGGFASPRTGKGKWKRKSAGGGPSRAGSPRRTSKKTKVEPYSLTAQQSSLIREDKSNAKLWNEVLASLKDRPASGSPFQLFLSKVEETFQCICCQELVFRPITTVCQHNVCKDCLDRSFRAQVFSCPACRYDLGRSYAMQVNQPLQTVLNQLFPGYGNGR
Assay: fluorescence polarization
Conditions: 50 mM vs 150 mM NaCl; 5mC at position 6 of strand 2 (GTCAG5mCGCATGG); 25 mM HEPES pH 7.5, 0.05% NP-40, 100 mM NaCl (unless indicated), 10 nM FAM-DNA, 10 min, 25 C; scale: fold affinity difference between 50 and 150 mM NaCl

Work on CCATGCGCTGAC (double strand) [HeDNA] yielded a binding signal of 500.
